Reference: patent US20190062438A1 (CSL, published 2019)
Where a chain is given by its changes, count along the chain named.

How the values were obtained:
[1] = biological target: shCD131 alanine mutants of Ser102, Val104 and Arg364; experiment: SPR, Fab over captured mutant
shCD131 N37A = biological target: T1, shCD131 N37A (human, UniProt P32927 17-438); experiment: SPR, steady state, Fab over captured mutant
T1 construct: C-terminal 6xHis
T1 sequence: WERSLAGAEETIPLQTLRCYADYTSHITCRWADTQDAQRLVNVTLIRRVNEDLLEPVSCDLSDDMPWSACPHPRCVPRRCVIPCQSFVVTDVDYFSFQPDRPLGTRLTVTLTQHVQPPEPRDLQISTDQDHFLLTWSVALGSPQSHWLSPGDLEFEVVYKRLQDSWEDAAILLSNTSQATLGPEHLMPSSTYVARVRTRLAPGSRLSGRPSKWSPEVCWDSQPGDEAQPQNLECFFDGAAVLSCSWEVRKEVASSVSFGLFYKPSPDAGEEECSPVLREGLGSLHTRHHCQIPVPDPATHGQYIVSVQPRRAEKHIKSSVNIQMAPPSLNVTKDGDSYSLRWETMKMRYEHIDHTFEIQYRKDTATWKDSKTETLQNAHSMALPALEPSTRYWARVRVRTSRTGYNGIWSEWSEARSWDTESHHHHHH
Experimental: (§1) For some analysis purified Fab was injected over each flow cell for 3 minutes and dissociation was monitored for a further 10 minutes. Regeneration of the surface was performed after each cycle with a 40 second injection of 25 mM glycine, pH 2.0. The analysis was performed with Fabs at several concentrations between 100 and 0.31 nM, with each concentration analyzed twice and in random order. The analysis was performed at a flow rate of 30 μl/min in HBS-EP buffer (10 mM Hepes, 150 mM NaCl, 3 mM EDTA, 0.005% Tween 20, pH 7.4) at 37° C. Responses from spots 2 and 4 of each flow cell, (in which shβc was not captured, but otherwise treated identically), were subtracted from those of spots 1 and 5 respectively to produce reference subtracted data. Reference subtracted responses from a blank injection comprising buffer alone were subtracted from the resultant sensorgrams to produce double referenced data suitable for kinetic analysis. Double-referenced sensorgrams were fitted using non-linear regression to a model describing 1:1 kinetics, including a term for mass transport limitation. The Rₘₐₓ value was fitted locally to account for slight deviations in the level of sCD131 captured, with association rate (kₐ), dissociation rate (kd) and equilibrium dissociation constant (KD) fitted globally.
(§2) Mapping of the shCD131 epitope was performed by measurement of the affinity of Fabs for various alanine point mutants of shCD131 essentially as described above, with the following exceptions. Each shCD131 mutant was captured for 120 seconds at concentrations between 1 and 5 μg/ml. For kinetic analysis, purified recombinant Fabs were injected for 2 minutes, and dissociation was monitored for a further 2 minutes. […] Fab concentrations ranged from 16 μM to 3.9 nM in two-fold dilutions. The assays were conducted at 25° C. All sensorgrams were reference subtracted as described above. For determination of steady-state affinity (KD only), the response at the end of the binding phase was used to fit the data to a single-site binding model. Kinetic parameters were determined as described above.

shCD131 I368A = biological target: T2, shCD131 I368A (human, UniProt P32927 17-438); experiment: SPR, steady state, Fab over captured mutant
T2 construct: C-terminal 6xHis
T2 sequence: T1 sequence with A21N, I352A
Experimental: as §1, §2

shCD131 S102A = biological target: T3, shCD131 S102A (human, UniProt P32927 17-438); experiment: SPR, steady state, Fab over captured mutant
T3 construct: C-terminal 6xHis
T3 sequence: T1 sequence with A21N, S86A
Experimental: as §1, §2

shCD131 M340A = biological target: T4, shCD131 M340A (human, UniProt P32927 17-438); experiment: SPR, steady state, Fab over captured mutant
T4 construct: C-terminal 6xHis
T4 sequence: T1 sequence with A21N, M324A
Experimental: as §1, §2

B1: 9A2 Fab (Fab, V domains shown)
VH: EVQLLESGGGLVQPGGSLRLSCAASGFTFSHYHMLWVRQAPGKGLEWVSSIRSSGGFTYYADSVKGRFTISRDNSKNTLYLQMNSLRAEDTAVYYCARFYDSFFDIWGQGTMVTVSS
VL: DIQMTQSPSSVSASVGDRVTITCRASQGISSWLAWYQQKPGKAPKLLIYAASSLQSGVPSRFSGSGSGTDFTLTISSLQPEDFATYYCQQANSFPITFGQGTRLEIKR
notes: also called recombinant Fab of 9A2
Work on B1 yielded a fold reduction of binding relative to WT shCD131 [1] of 3 to 7 fold, a Kd (shCD131 N37A) of 620 nM and a Kd (shCD131 I368A) of 4770 nM. It also gave a Kd (shCD131 S102A) of 324 nM and a Kd (shCD131 M340A) of 235 nM.
